The chains are these.
B1: EcDnaC, helicase loader DnaC from E. coli (natural protein)
chain: MKNVGDLMQRLQKMMPAHIKPAFKTGEELLAWQKEQGAIRSAALERENRAMKMQRTFNRSGIRPLHQNCSFENYRVECEGQMNALSKARQYVEEFDGNIASFIFSGKPGTGKNHLAAAICNELLLRGKSVLIITVADIMSAMKDTFRNSGTSEEQLLNDLSNVDLLVIDEIGVQTESKYEKVIINQIVDRRSSSKRPTGMLTNSNMEEMTKLLGERVMDRMRLGNSLWVIFNWDSYRSRVTGKEY
B2: VcDnaB, replicative helicase DnaB from Vibrio cholerae (enzyme)
chain: MADPRTDNRNRKIPDAQVDAIKVPPHSLEAEQSVIGGLLLDNERWDTVSEHVMTQDFYSRPHRLIFDGVKSILEAGKPLDLITLSEYLEQREQLEDVGGFAYLADLAKNTPSAANINAYAEIVAERALVRNLIGVANEIADAGYDPQGRNAEDLLDLAESKVFAIAEARTSENEGPKNVDSILERTLERIELLYKTPQDGVTGVNTGFTDLNKKTAGLQGSDLIIVAARPSMGKTTFAMNLCENAAMEQDKPVLIFSLEMPAEQIMMRMLASLSRVDQTKIRTGQLDDEDWARISSTMGILMEKKNMYIDDSSGLTPTEVRSRARRIAREHGGLSLIMVDYLQLMRVPALTDNRTLEIAEISRSLKALAKELNVPVVALSQLNRSLEQRADKRPVNSDLRESGSIEQDADLIMFIYRDEVYHPDSPLKGTAEIIIGKQRNGPIGSVRLTFQGHYSRFDNYAGPAFDDE
B3: VcDnaB, replicative helicase DnaB from Vibrio cholerae (enzyme)
chain: B2 chain

Data set [1] deals with VcDnaB, replicative helicase DnaB from Vibrio cholerae (Vibrio cholerae). Briefly: SPR.
Data set [2] shares this target. The data set can be described thus: SEC-SAXS.
The next data set concerns the target EcDnaB^G299S (E. coli, UniProt P0ACB0 1-471, G299S). Briefly: SPR. Background: Surface plasmon resonance follows binding to a sensor surface in real time, without labels.
Another data set addresses VcDnaB^S296G (Vibrio cholerae, UniProt A0A085R2T8 1-468, S296G). Briefly: SPR.
Data set [3] deals with B2. Briefly: SPR.
The data set “crystal structure” deals with the molecule itself. Briefly: crystal structure.
The data set “SEC-MALS” concerns the molecule itself. Briefly: SEC-MALS.

In data set [1], “VcDciA, DciA from Vibrio cholerae (natural protein)” gave a stoichiometry N (VcDciA per 6 VcDnaB) of 3. In data set [2], this molecule came in with a stoichiometry N (VcDciA per VcDnaB hexamer) of 3.

For the molecule B1, the “fold change of the dissociation rate against EcDnaB” value in the data set with EcDnaB^G299S stood at 2 fold. For the same molecule, the binding result (with VcDnaB^S296G; in data set [3]) was “binds” throughout. On to B2, for which the “stoichiometry N” value in “crystal structure” turned out to be 6 subunits. As to B3, the “stoichiometry N” value in the data set “SEC-MALS” is 6.

As usually defined, the stoichiometry N is the number of molecules, sites or subunits per partner or assembly.

(Values after PMC8216460 (Nucleic Acids Research, 2021).)
